{"source": "patent US20050048070A1", "about": "(published 2005)", "key": {"[1]": {"target": "T1, K8(1-85)/K18(1-72) heterotypic complex (human, UniProt P05787 2-86; P05783 2-73)", "T1 construct": "Heterotypic complex of two GST fusion proteins; not shown: glutathione S-transferase (GST) fusion partner, modified pGEX-2T vector", "T1 chain 1": "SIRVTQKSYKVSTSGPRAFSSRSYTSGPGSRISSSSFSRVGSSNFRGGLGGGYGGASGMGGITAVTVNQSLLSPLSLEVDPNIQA", "T1 chain 2": "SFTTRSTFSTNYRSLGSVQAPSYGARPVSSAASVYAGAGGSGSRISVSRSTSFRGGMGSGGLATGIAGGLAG", "assay": "heterotypic association Western blot"}, "[2]": {"target": "T2, intact K8/intact K18 heterotypic complex (recombinant GST fusion proteins) (human, UniProt P05787 2-483; P05783 2-430)", "T2 construct": "Heterotypic complex of two GST fusion proteins; also called intact K8/K18 complex; not shown: glutathione S-transferase (GST) fusion partner, modified pGEX-2T vector", "T2 chain 1": "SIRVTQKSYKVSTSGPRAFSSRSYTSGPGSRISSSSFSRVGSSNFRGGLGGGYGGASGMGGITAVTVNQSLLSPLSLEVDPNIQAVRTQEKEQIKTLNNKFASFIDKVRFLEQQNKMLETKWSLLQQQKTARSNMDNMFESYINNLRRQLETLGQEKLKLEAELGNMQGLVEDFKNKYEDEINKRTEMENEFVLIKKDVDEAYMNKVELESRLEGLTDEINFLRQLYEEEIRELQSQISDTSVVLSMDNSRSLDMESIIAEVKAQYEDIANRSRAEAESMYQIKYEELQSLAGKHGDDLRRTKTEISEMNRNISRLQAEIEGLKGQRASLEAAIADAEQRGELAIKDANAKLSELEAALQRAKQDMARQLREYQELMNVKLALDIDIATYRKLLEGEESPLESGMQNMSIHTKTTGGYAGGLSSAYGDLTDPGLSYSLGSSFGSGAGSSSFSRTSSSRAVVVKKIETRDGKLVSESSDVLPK", "T2 chain 2": "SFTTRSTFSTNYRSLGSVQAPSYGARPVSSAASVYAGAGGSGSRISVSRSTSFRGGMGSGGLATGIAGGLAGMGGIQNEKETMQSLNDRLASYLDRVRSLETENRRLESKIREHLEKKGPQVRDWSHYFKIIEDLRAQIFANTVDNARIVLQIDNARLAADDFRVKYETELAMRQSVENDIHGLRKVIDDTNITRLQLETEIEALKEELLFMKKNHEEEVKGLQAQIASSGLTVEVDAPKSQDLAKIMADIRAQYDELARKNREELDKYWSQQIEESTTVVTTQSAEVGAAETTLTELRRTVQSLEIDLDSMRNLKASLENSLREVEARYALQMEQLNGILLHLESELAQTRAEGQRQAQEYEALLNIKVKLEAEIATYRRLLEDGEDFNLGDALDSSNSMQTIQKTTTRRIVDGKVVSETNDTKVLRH", "assay": "SPR (BIAcore), complex immobilized, COU-1 injected"}, "[3]": {"target": "T3, K18(1-65) GST fusion protein (human, UniProt P05783 2-66)", "T3 construct": "Alone, not complexed; not shown: glutathione S-transferase (GST) fusion partner, modified pGEX-2T vector", "T3 sequence": "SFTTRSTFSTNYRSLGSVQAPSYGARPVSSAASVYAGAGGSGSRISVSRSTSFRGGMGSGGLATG", "assay": "Western blot of SDS-PAGE-separated GST fusion proteins"}, "[4]": {"target": "T4, N-terminally truncated K8 protein where the first 22 amino acids were missing (from colon cancer tissue) (human, UniProt P05787 24-483)", "T4 construct": "also called K8 starting at residue 23", "T4 chain": "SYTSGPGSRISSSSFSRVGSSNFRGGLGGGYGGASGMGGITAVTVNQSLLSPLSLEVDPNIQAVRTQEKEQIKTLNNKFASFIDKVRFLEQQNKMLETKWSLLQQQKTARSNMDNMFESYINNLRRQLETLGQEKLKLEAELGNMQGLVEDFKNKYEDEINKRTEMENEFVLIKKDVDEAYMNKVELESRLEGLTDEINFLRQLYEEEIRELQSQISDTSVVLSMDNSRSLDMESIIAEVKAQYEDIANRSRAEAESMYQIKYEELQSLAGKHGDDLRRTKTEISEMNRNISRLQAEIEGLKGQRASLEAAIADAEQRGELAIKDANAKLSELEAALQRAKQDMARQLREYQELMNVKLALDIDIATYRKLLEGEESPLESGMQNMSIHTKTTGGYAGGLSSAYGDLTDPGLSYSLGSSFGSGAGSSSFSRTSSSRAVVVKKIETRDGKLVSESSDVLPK", "assay": "Western blot of cytokeratin bands from colon cancer tissue, bands identified by N-terminal sequencing (drawn table)", "method": "Protein bands were visualized with Coomassie Brilliant Blue. Separated proteins were also electroblotted onto polyvinylidene difluoride membranes (PVDF, Immobilon P, Millipore, Bedford, Mass.), at 100 Volts for 1 h in ice, using transfer buffer (10% (v/v) ethanol, 25 mM Tris, 200 mM glycine). Prior to transfer, the membrane was pre-soaked in ethanol for 2 min and the membranes and the gel were incubated in transfer buffer for 10 min. […] The membrane was washed in Western blot buffer and incubated with AP-conjugated rabbit-anti-goat IgG antibody (diluted 1/1000, Sigma), or AP-conjugated rabbit-anti-human IgM antibody (diluted 1/500, DAKO, Glostrup, Denmark) for 2 h at room temperature. Following 3 washes in PBS, the membrane was fixed with 0.2% glutaraldehyde in PBS for 15 min at room temperature and finally washed in PBS. Bound AP conjugate was visualized by NBT/BCIP (Bio-Rad, Hercules, Calif.). MCF7 or Colon 137 cells, resuspended in SDS sample buffer and sonicated, were used as antigen control. A low range protein marker (Bio-Rad) was used to indicate the molecular weight of the fragments."}, "[5]": {"target": "T5, K8(343-483)/intact K18 heterotypic complex", "T5 construct": "one member of the group m25; not shown: N-terminal GST carrier (modified pGEX-2T) and its linker on the keratin constructs", "T5 chain 1": "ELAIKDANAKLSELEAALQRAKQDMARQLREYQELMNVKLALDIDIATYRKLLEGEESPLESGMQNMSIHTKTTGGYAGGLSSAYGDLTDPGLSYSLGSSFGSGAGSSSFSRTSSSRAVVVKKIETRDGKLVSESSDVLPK", "T5 chain 2": "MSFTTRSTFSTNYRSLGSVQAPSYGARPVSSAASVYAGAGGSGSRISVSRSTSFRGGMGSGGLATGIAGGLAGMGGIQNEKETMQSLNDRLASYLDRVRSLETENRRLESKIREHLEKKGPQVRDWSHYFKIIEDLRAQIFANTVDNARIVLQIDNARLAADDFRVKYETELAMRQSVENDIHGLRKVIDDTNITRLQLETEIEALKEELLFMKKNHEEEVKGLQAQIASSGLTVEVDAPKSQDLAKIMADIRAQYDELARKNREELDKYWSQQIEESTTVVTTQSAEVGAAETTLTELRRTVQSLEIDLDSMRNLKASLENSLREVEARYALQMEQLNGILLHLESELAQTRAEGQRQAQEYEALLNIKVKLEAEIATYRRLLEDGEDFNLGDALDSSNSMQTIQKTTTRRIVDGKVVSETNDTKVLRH", "assay": "summary map of the heterotypic association assay: GST deletion protein incubated with the complementary keratin, then stained with COU-1"}, "[6]": {"target": "T6, K8(1-65)/intact K18 heterotypic complex (human, UniProt P05787 2-66; P05783 2-430)", "T6 construct": "Heterotypic complex of two GST fusion proteins; not shown: glutathione S-transferase (GST) fusion partner, modified pGEX-2T vector", "T6 sequence 1": "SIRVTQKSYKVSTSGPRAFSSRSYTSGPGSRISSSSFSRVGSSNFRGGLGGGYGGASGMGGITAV", "T6 sequence 2": "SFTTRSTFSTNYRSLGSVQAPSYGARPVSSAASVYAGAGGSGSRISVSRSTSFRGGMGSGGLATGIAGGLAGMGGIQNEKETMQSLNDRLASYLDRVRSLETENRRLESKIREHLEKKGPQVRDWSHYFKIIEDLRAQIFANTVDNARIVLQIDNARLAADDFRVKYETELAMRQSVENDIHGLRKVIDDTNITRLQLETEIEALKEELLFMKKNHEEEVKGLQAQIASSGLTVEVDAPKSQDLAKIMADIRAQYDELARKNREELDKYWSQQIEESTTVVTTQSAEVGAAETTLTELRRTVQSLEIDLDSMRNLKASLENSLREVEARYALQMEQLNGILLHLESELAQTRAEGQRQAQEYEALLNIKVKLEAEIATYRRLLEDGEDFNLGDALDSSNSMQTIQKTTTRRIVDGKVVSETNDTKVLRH", "assay": "summary map of the heterotypic association assay: GST deletion protein incubated with the complementary keratin, then stained with COU-1"}}, "data": [{"binder": "human monoclonal IgM antibody COU-1 (antibody, V domains shown, Human IgM with kappa light chain, secreted by hybridoma B9165 (ECACC 87040201), purified from culture supernatant; also called HMab COU-1; HuMab COU-1) VH: GAEVKKPGASVKVSCKASDYTFSSYYMHWVRQAPGQGLEWMGIINPSGGSTSYAQKFQGRVTMTRDTSTNTVYMELSSLRSEDTAVYYCARDQVVVAATLSNYGMDVWGQGTTVTVSS VL: ELTQSPGTLSLSPGERATLSCRASQSVSSSYLAWYQQKPGQAPRLLIYDASNRATGIPARFSGSGSGTDFTLTISSLEPEDFAVYYCQQGTNWGIAFGQGTRLDIKR", "values": [{"measurement": "binding result", "setting": "[1]", "result": "no binding (tested: COU-1 5 µg/ml)"}, {"measurement": "Ka", "setting": "[2]", "result": "1.8e+07", "unit": "M⁻¹"}, {"measurement": "Kd", "setting": "[2]", "result": 55, "unit": "nM"}, {"measurement": "fold lower binding than to the truncated complexes", "setting": "[2]", "result": "~100", "unit": "fold"}, {"measurement": "koff", "setting": "[2]", "result": 0.0005, "unit": "s⁻¹"}, {"measurement": "kon", "setting": "[2]", "result": 9100, "unit": "M⁻¹ s⁻¹"}, {"measurement": "binding result", "setting": "[3]", "result": "no binding (tested: COU-1 5 µg/ml)"}, {"measurement": "binding result", "setting": "[4]", "result": "no binding (tested: 5 µg/ml COU-1 (P-0279))"}, {"measurement": "binding result", "setting": "[5]", "result": "no binding (tested: 5 µg/ml COU-1 (P-0285))"}, {"measurement": "binding result", "setting": "[6]", "result": "no binding (tested: 5 µg/ml COU-1 (P-0285))"}]}]}
